Experimental data as given in patent US20250122539A1, “LARGE SCALE PRODUCTION OF DIVARIN, DIVARINIC ACID AND OTHER ALKYL RESORCINOLS BY FERMENTATION” (priority 2021, published 2025).

Key:
[1] = Partitioning of olivetolic acid between organic overlay and aqueous culture phase (shake flask, HPLC); assay type: physicochemical; details: YP + 2% galactose culture
Method: Precultures of LSC3-2 and LSC3-18 were inoculated from YPD streak plates and grown in 30 ml of YP+2% (w/v) glucose in baffled 250 ml shake flasks for approximately 18 hours overnight at 30° C. with 200 rpm shaking. Baffled 250 ml shake flasks containing 30 mL of YP+2% (w/v) galactose, 5 mL of IPM or diethyl sebacate, and 0.04% (w/v) hexanoic acid, were inoculated with 1 mL of preculture and grown for at 30° C. with 200 rpm shaking. After 24 and 48 hours, samples of cell culture broth plus overlay were sampled into microcentrifuge tubes and stored at −20° C. at least overnight. Sample tubes were thawed and aqueous sample and overlay sample were pipetted into plates for HPLC analysis. Overlay samples were diluted 1:1 v/v with methanol in the HPLC plate prior to analysis.
Total olivetol equivalents are defined as the concentration of olivetol in mg/L, plus the concentration of olivetolic acid in mg/L multiplied by the ratio of the molecular weight of olivetol to olivetolic acid.

[2] = Partitioning of divarinic acid and divarin into organic solvent overlays (96 well deepwell plate, HPLC); assay type: physicochemical; details: compared with olivetolic acid and olivetol
Method: Several monoester and one diester overlay candidate were compared to IPM for production of divarinic acid and divarin. LSC3-13 precultures were inoculated from YPD streak plates and grown in 300 μL Delft medium+0.79 g/L complete supplement mixture (CSM) (ForMedium, Norfolk, UK)+2% (w/v) glucose in round-bottom square well 96 well deepwell plates for approximately 18 hours overnight at 30° C. with 950 rpm shaking in an Infors plate shaker. 96 well deepwell plate wells containing 300 μL of Delft medium+CSM+2% (w/v) glucose, 60 μL of different overlay solvents, and 0.08% (w/v) butyric acid, were inoculated with 10 μL of preculture and grown for 30° C. with 950 rpm shaking. After 48 hours, the aqueous layer and overlay were sampled on a Bravo automated liquid handling platform (Agilent) and samples from the aqueous and organic overlay phases were subjected to HPLC analysis to measure divarinic acid and divarin production.

[3] = tested on: butyric acid; experiment: Two plasmid screening system for relative AAE activity, butyric acid feeding; assay type: cell-based, Saccharomyces cerevisiae; details: for Divarin / Divarinic acid: average production, LSC3-297/pLOA-049 plus AAE plasmid, Delft medium pH 5.5 with 150 mM MES, 9.08 mM butyric acid, 48 hours; for activity as butyryl-CoA synthetases for divarin and divarinic acid production: over CsAAE1
From the text: (§1) In order to perform in vivo screening in Saccharomyces cerevisiae for acyl activating enzyme (AAE) variants with enhanced activity and/or expression, a two plasmid screening system was employed to generate an artificial bottleneck in AAE activity. This bottleneck was generated by natural copy number variation of the two plasmids, with a multi-copy 2 micron episomal plasmid, pLOA-049, harboring an olivetol synthase homologue from C. sativa (CsTKS) fused with a T2A self-cleaving peptide (Kearsey et al., FEBS J. 287:1511-1524, 2020) to a gene encoding olivetol acid cyclase from C. sativa (CsOAC), and a lower copy centromeric plasmid with an autonomous replicating sequence (CEN/ARS) harboring different acyl activating enzymes/acyl-CoA synthetases from different organisms. Markers employed on the 2 micron plasmid were orotidine-5′-phosphate decarboxylase from S. cerevisiae (URA3) and on the CEN/ARS plasmid, the multifunctional histidine biosynthesis gene HIS4 from S. cerevisiae. The cassette architecture in the plasmids was based on integrated cassettes in production strain LSC3-2, with a pGAL1-10 bidirectional promoter driving expression of CsTKS and CsOAC from pGAL1 with a S. cerevisiae CYC1 terminator, and insulated downstream of pGAL10 by a S. cerevisiae GRE3 terminator. Likewise on the CEN/ARS plasmid, a bidirectional pGAL1-10 promoter drives expression of CsAAE1 from pGAL10 with a S. cerevisiae GRE3 terminator, and is insulated downstream of pGAL1 by a S. cerevisiae CYC1 terminator.
(§2) To screen activity of AAE variants, first a CEN/ARS containing plasmid expressing AAEs co-transformed with the 2 micron plasmid expressing CsTKS translationally fused to CsOAC via the T2A self-cleaving peptide into strain LSC3-297 using the transformation method described by Gietz and Schiestl (Nat. Protocols 2:31-34, 2007). Double plasmid transformants were selected on YNB agar with 2% (w/v) glucose and CSM minus histidine and minus uracil (CSM-His-Ura, Sunrise Science Products) and grown in a 30° C. incubator for approximately 48 hours or at room temperature for approximately 72 hours. Individual colonies were picked into wells of 96 deepwell plates containing 0.3 mL per well of Delft medium with 2% (w/v) glucose and 0.75 g/L CSM-His-Ura. Delft medium base contains (per liter solution) 7.5 g ammonium sulfate, 14.4 g potassium phosphate monobasic (added from a 1 M stock solution adjusted to pH 6.5 with sodium hydroxide), 0.5 g magnesium sulfate heptahydrate, 3.6 mL of a trace metal solution (consisting of 130 g/L citric acid monohydrate, 0.574 g/L copper (II) sulfate pentahydrate, 8.07 g/L iron (III) chloride hexahydrate, 0.5 g/L boric acid, 0.333 g/L manganese (II) chloride, 0.2 g/L sodium molybdate, and 4.67 g/L zinc sulfate heptahydrate), and 1.0 ml of a vitamin solution (0.008 g/L biotin, 1.6 g/L calcium pantothenate, 0.008 g/L folic acid, 8 g/L myo-inositol, 1.6 g/L nicotinic acid, 0.8 g/L p-aminobenzoic acid, 1.6 g/L pyridoxal hydrochloride, 0.8 g/L riboflavin, 1.6 g/L thiamine hydrochloride, adjusted to pH […] with sodium hydroxide). Plates were grown for 16-24 hours at 30° C. in a plate shaker incubator maintained at 80% relative humidity and 900 rpm shaking (3 mm diameter throw). Ten microliters of preculture was then used to inoculate wells of 96 deepwell plates containing 0.3 mL per well of Delft medium with 2% (w/v) glucose, 0.75 g/L CSM-His-Ura, either 9.08 mM butyric acid or 3.44 mM hexanoic acid, and for divarin/divarinic acid, additionally 150 mM 2-(N-morpholino) ethanesulfonic acid (MES) at pH 5.5 and with the additional modification of the 1 M potassium phosphate monobasic stock in the Delft medium base also adjusted to pH 5.5 (for olivetol/olivetolic acid production from hexanoic acid, no MES was added and potassium phosphate monobasic solution used in the Delft medium base was at pH 6.5). […]

[4] = tested on: hexanoic acid; experiment: Two plasmid screening system for relative AAE activity, hexanoic acid feeding; assay type: cell-based, Saccharomyces cerevisiae; details: for Olivetol / Olivetolic acid: average production, LSC3-297/pLOA-049 plus AAE plasmid, Delft medium pH 6.5, 3.44 mM hexanoic acid, 48 hours
From the text: as §1, §2

## CCCCCc1cc(O)cc(O)c1C(=O)O [OA, olivetolic acid]
[1]; IPM overlay
  partitioning between overlay and aqueous phase: partitioned between the IPM and aqueous phases
[1]; diethyl sebacate overlay
  partitioning between overlay and aqueous phase: entirely partitioned into diethyl sebacate

## CCCc1cc(O)cc(O)c1 [divarin, 1,3-dihydroxy-5-propylbenzene]
[2]
  partitioning into monoester overlays: partition less effectively

## CCCc1cc(O)cc(O)c1C(=O)O [divarinic acid, 2,4-dihydroxy-6-propylbenzoic acid]
[2]
  partitioning into monoester overlays: partition less effectively

B1: CsAAE1: Cannabis sativa acyl activating enzyme 1 (SEQ ID NO: 4), codon-optimized for S. cerevisiae, on plasmid pLOA-059 (protein, listed as Cannabis sativa)
chain: MGKNYKSLDSVVASDFIALGITSEVAETLHGRLAEIVCNYGAATPQTWINIANHILSPDLPFSLHQMLFYGCYKDFGPAPPAWIPDPEKVKSTNLGALLEKRGKEFLGVKYKDPISSFSHFQEFSVRNPEVYWRTVLMDEMKISFSKDPECILRRDDINNPGGSEWLPGGYLNSAKNCLNVNSNKKLNDTMIVWRDEGNDDLPLNKLTLDQLRKRVWLVGYALEEMGLEKGCAIAIDMPMHVDAVVIYLAIVLAGYVVVSIADSFSAPEISTRLRLSKAKAIFTQDHIIRGKKRIPLYSRVVEAKSPMAIVIPCSGSNIGAELRDGDISWDYFLERAKEFKNCEFTAREQPVDAYTNILFSSGTTGEPKAIPWTQATPLKAAADGWSHLDIRKGDVIVWPTNLGWMMGPWLVYASLLNGASIALYNGSPLVSGFAKFVQDAKVTMLGVVPSIVRSWKSTNCVSGYDWSTIRCFSSSGEASNVDEYLWLMGRANYKPVIEMCGGTEIGGAFSAGSFLQAQSLSSFSSQCMGCTLYILDKNGYPMPKNKPGIGELALGPVMFGASKTLLNGNHHDVYFKGMPTLNGEVLRRHGDIFELTSNGYYHAHGRADDTMNIGGIKISSIEIERVCNEVDDRVFETTAIGVPPLGGGPEQLVIFFVLKDSNDTTIDLNQLRLSFNLGLQKKLNPLFKVTRVVPLSSLPRTATNKIMRRVLRQQFSHFE
[3]
  Divarin: 1.58 mg/L
  Divarinic acid: 1.51 mg/L
[4]
  Olivetol: 2.61 mg/L
  Olivetolic acid: 2.99 mg/L
[4]; out of the tested AAE sequences
  activity as a hexanoyl-CoA synthetase for olivetol and olivetolic acid production: highest activity

B2: AtAAE7: acyl activating enzyme 7 from Arabidopsis thaliana (Uniprot Q8VZF1), C-terminal peroxisomal targeting sequence removed, SEQ ID NO: 9 (protein, listed as Arabidopsis thaliana)
chain: MAATKWRDIDDLPKIPANYTALTPLWFLDRAAVVHPTRKSVIHGSREYTWRQTYDRCRRLASALADRSIGPGSTVAIIAPNIPAMYEAHFGVPMCGAVLNCVNIRLNAPTVAFLLSHSQSSVIMVDQEFFTLAEDSLRLMEEKAGSSFKRPLLIVIGDHTCAPESLNRALSKGAIEYEDFLATGDPNYPWQPPADEWQSIALGYTSGTTASPKGVVLHHRGAYIMALSNPLIWGMQDGAVYLWTLPMFHCNGWCFPWSLAVLSGTSICLRQVTAKEVYSMIAKYKVTHFCAAPVVLNAIVNAPKEDTILPLPHTVHVMTAGAAPPPSVLFSMNQKGFRVAHTYGLSETYGPSTVCAWKPEWDSLPPETQAKLNARQGVRYTGMEQLDVIDTQTGKPVPADGKTAGEIVFRGNMVMKGYLKNPEANKETFAGGWFHSGDIAVKHPDNYIEIKDRSKDVIISGGENISSVEVENVVYHHPAVLEASVVARPDERWQESPCAFVTLKSDYEKHDQNKLAQDIMKFCREKLPAYWVPKSVVFGPLPKTATGKIQKHILRTKAKEMGPVPR
[3]
  Divarin: 7.18 mg/L
  Divarinic acid: 5.63 mg/L
  activity as butyryl-CoA synthetases for divarin and divarinic acid production: several-fold activity improvements
[4]
  Olivetol: 0.74 mg/L
  Olivetolic acid: 1.60 mg/L

B3: At4CLL6: 4-coumarate--CoA ligase-like 6 from Arabidopsis thaliana (Uniprot Q84P24), SEQ ID NO: 11 (protein, listed as Arabidopsis thaliana)
chain: MAATHLHIPPNPKTQTSHQNPPFWFSSKTGIYTSKFPSLHLPVDPNLDAVSALFSHKHHGDTALIDSLTGFSISHTELQIMVQSMAAGIYHVLGVRQGDVVSLVLPNSVYFPMIFLSLISLGAIVTTMNPSSSLGEIKKQVSECSVGLAFTSTENVEKLSSLGVSVISVSESYDFDSIRIENPKFYSIMKESFGFVPKPLIKQDDVAAIMYSSGTTGASKGVLLTHRNLIASMELFVRFEASQYEYPGSSNVYLAALPLCHIYGLSLFVMGLLSLGSTIVVMKRFDASDVVNVIERFKITHFPVVPPMLMALTKKAKGVCGEVFKSLKQVSSGAAPLSRKFIEDFLQTLPHVDLIQGYGMTESTAVGTRGFNSEKLSRYSSVGLLAPNMQAKVVDWSSGSFLPPGNRGELWIQGPGVMKGYLNNPKATQMSIVEDSWLRTGDIAYFDEDGYLFIVDRIKEIIKYKGFQIAPADLEAVLVSHPLIIDAAVTAAPNEECGEIPVAFVVRRQETTLSEEDVISYVASQVAPYRKVRKVVMVNSIPKSPTGKILRKELKRILTNSVS
[3]
  Divarin: 5.96 mg/L
  Divarinic acid: 5.24 mg/L
  activity as butyryl-CoA synthetases for divarin and divarinic acid production: several-fold activity improvements
[4]
  Olivetol: 0.86 mg/L
  Olivetolic acid: 0.91 mg/L
